Test results published in PMC11526107, “ZC3HAV1 facilitates STING activation and enhances inflammation” (Communications Biology, 2024).

Columns and labels:
[1] = biological target: the molecule itself; assay: native gel or EMSA; native PAGE (7% gel, no SDS, sodium deoxycholate in the cathode buffer) and immunoblot of lysates of mouse peritoneal macrophages after HSV-1, ISD or cGAMP; WT against Zc3hav1^-/- or Zc3hav1 siRNA (dimer and oligomer decreased)
[2] = biological target: the molecule itself; assay: native gel or EMSA; native PAGE and immunoblot of lysates of HEK293T cells transfected with STING with or without ZAPS or ZAPL, stimulated with DMXAA

Protein | stoichiometry N [1] | stoichiometry N [2]
Stimulator of interferon genes (STING), endogenous in mouse peritoneal macrophages (natural protein, UniProt Q3TBT3 1-378, looked up, mouse STING, endogenous; also called TMEM173; MITA; source: endogenous, mouse peritoneal macrophage lysate) MPYSNLHPAIPRPRGHRSKYVALIFLVASLMILWVAKDPPNHTLKYLALHLASHELGLLLKNLCCLAEELCHVQSRYQGSYWKAVRACLGCPIHCMAMILLSSYFYFLQNTADIYLSWMFGLLVLYKSLSMLLGLQSLTPAEVSAVCEEKKLNVAHGLAWSYYIGYLRLILPGLQARIRMFNQLHNNMLSGAGSRRLYILFPLDCGVPDNLSVVDPNIRFRDMLPQQNIDRAGIKNRVYSNSVYEILENGQPAGVCILEYATPLQTLFAMSQDAKAGFSREDRLEQAKLFCRTLEEILEDVPESRNNCRLIVYQEPTDGNSFSLSQEVLRHIRQEEKEEVTMNAPMTSVAPPPSVLSQEPRLLISGMDQPLPLRTDLI | 2 | –
exogenous STING in HEK293T cells (native PAGE, Fig. 3i) (natural protein, UniProt Q3TBT3 1-378, looked up, Probably the same construct as m9 or m10; the text and legend say only 'the indicated plasmids'; source: HEK293T, transfected, in lysate) MPYSNLHPAIPRPRGHRSKYVALIFLVASLMILWVAKDPPNHTLKYLALHLASHELGLLLKNLCCLAEELCHVQSRYQGSYWKAVRACLGCPIHCMAMILLSSYFYFLQNTADIYLSWMFGLLVLYKSLSMLLGLQSLTPAEVSAVCEEKKLNVAHGLAWSYYIGYLRLILPGLQARIRMFNQLHNNMLSGAGSRRLYILFPLDCGVPDNLSVVDPNIRFRDMLPQQNIDRAGIKNRVYSNSVYEILENGQPAGVCILEYATPLQTLFAMSQDAKAGFSREDRLEQAKLFCRTLEEILEDVPESRNNCRLIVYQEPTDGNSFSLSQEVLRHIRQEEKEEVTMNAPMTSVAPPPSVLSQEPRLLISGMDQPLPLRTDLI | – | 2
